# Read-outs that look alike come from different tables or passages of the source.
# T1: CCL5_HUMAN (human, UniProt P13501 24-91)
# T1 sequence: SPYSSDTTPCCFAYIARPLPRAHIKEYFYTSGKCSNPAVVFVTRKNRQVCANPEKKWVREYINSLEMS
# T2: CCL19_HUMAN (human, UniProt Q99731 22-98)
# T2 sequence: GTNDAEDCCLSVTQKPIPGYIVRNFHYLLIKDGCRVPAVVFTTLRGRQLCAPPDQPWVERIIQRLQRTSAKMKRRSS
# T3: CCL15_HUMAN (human, UniProt Q16663 22-113)
# T3 sequence: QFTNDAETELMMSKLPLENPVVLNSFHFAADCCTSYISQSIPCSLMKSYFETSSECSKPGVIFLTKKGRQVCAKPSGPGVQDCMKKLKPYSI
# T4: CCL25_HUMAN (human, UniProt O15444 24-150)
# T4 sequence: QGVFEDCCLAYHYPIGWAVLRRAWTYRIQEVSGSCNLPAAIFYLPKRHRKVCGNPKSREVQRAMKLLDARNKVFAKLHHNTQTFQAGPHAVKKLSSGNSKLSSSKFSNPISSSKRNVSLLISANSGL
# T5: CCL8_HUMAN (human, UniProt P80075 24-99)
# T5 sequence (looked up): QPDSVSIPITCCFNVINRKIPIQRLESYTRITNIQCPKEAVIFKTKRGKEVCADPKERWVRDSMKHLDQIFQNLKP
# T6: CCL1_HUMAN (human, UniProt P22362 24-96)
# T6 sequence: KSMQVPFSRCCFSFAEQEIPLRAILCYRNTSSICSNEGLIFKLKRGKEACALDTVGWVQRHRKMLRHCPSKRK
# T7: CCL18_HUMAN (human, UniProt P55774 21-89)
# T7 sequence: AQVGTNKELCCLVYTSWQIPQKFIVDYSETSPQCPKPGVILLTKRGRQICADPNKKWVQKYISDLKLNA
# T8: CCL4_HUMAN (human, UniProt P13236 24-92)
# T8 sequence: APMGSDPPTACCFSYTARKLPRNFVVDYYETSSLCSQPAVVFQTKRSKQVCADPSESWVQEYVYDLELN
# T9: CCL17_HUMAN (human, UniProt Q92583 24-94)
# T9 sequence: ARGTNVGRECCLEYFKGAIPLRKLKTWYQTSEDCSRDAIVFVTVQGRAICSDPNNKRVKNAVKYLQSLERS
# T10: CCL3_HUMAN (human, UniProt P10147 24-92)
# T10 sequence: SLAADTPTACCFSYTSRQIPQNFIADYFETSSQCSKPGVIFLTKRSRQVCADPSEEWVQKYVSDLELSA
# T11: CXCL3_HUMAN (human, UniProt P19876 35-107)
# T11 sequence: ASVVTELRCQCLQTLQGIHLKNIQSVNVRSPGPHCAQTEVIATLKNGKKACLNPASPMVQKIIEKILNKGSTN
# T12: CXCL1_HUMAN (human, UniProt P09341 35-107)
# T12 sequence: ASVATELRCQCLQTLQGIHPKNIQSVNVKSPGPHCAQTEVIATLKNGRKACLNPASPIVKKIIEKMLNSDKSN
# T13: CCL8-647 (human, UniProt P80075 24-99)
# T13 sequence (looked up): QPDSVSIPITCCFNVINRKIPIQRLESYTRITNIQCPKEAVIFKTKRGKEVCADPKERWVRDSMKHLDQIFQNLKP
# Key:
# CCL5_HUMAN [1] = biological target: T1, CCL5_HUMAN; assay: yeast surface display FACS
# CCL19_HUMAN = biological target: T2, CCL19_HUMAN; assay: yeast surface display FACS
# CCL15_HUMAN = biological target: T3, CCL15_HUMAN; assay: yeast surface display FACS
# CCL25_HUMAN = biological target: T4, CCL25_HUMAN; assay: yeast surface display FACS
# CCL8_HUMAN [2] = biological target: T5, CCL8_HUMAN; assay: BLI, dose titration
# CCL5_HUMAN [3] = biological target: T1, CCL5_HUMAN; assay: yeast surface display FACS; remark: listed apart in the source
# CCL1_HUMAN [4] = biological target: T6, CCL1_HUMAN; assay: yeast surface display FACS
# CCL18_HUMAN [5] = biological target: T7, CCL18_HUMAN; assay: yeast surface display FACS
# CCL11_HUMAN [6] = biological target: T14, CCL11_HUMAN (human, UniProt P51671 24-97); assay: yeast surface display FACS
# CXCL12_HUMAN = CXCL12_HUMAN (human, UniProt P48061 22-89); assay: yeast surface display FACS
# CCL4_HUMAN = biological target: T8, CCL4_HUMAN; assay: yeast surface display FACS
# CCL1_HUMAN [7] = biological target: T6, CCL1_HUMAN; assay: yeast surface display FACS; remark: listed apart in the source
# CCL17_HUMAN = biological target: T9, CCL17_HUMAN; assay: yeast surface display FACS
# CCL3_HUMAN [8] = biological target: T10, CCL3_HUMAN; assay: yeast surface display FACS
# CCL11_HUMAN [9] = biological target: T14, CCL11_HUMAN; assay: yeast surface display FACS; remark: listed apart in the source
# CCL8_HUMAN [10] = biological target: T5, CCL8_HUMAN; assay: yeast surface display FACS
# CCL18_HUMAN [11] = biological target: T7, CCL18_HUMAN; assay: yeast surface display FACS; remark: listed apart in the source
# CXCL3_HUMAN = biological target: T11, CXCL3_HUMAN; assay: BLI
# CXCL1_HUMAN = biological target: T12, CXCL1_HUMAN; assay: BLI
# CCL8_HUMAN [12] = biological target: T5, CCL8_HUMAN; assay: cell-based or functional assay
# CCL8-647 = biological target: T13, CCL8-647; assay: flow cytometry, inhibition of CCL8-647 binding to THP-1 cells
# CCL3_HUMAN [13] = biological target: T10, CCL3_HUMAN; assay: cell-based or functional assay
# CCL8_HUMAN [14] = biological target: T5, CCL8_HUMAN; assay: cell-based or functional assay; remark: listed apart in the source
# CCL2-647 = CCL2-647 (human, UniProt P13500 24-99); assay: flow cytometry, inhibition of CCL2-647 binding to THP-1 cells
# Sequence of CCL2-647 (P13500 24-99 limits assumed): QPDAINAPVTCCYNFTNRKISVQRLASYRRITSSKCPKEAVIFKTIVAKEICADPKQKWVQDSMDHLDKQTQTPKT
# T14 sequence (P51671 24-97 limits assumed): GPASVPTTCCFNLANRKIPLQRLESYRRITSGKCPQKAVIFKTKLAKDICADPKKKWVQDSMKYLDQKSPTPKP
# Sequence of CXCL12_HUMAN (P48061 22-89 limits assumed): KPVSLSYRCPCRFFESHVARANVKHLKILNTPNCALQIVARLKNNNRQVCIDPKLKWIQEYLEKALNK
binder,measurement,setting,value
P1006_AMBCA (other) DTIGGIPGCGDPATTSAPEDQPKHYAVRTDKNGCKVMVIGTWMTKEDHNLLPPYISKERAPSGKVQLPASCKKNCHGKLKNLPNGTPCREVFGDLRRRRKHIKDGCKVGKCQNGLCVSEERIISCYLPPNITDPRPTHGPLAE,binding result,CCL5_HUMAN [1],binds
same,binding result,CCL19_HUMAN,binds
same,binding result,CCL15_HUMAN,binds
same,binding result,CCL25_HUMAN,binds
EVA1(P672 22-32) hybrid protein (designed binder) EDDEDYEDFFKPVTCYFLVAENKTGYPTIVACKQDCNGTTETAPNGTRCFSIGDEGLRRMTANLPYDCPLGQCSNGDCIPKETYEVCYRRNWRDKKN,Kd,CCL8_HUMAN [2],490 nM
P1209_AMBPA (other) KTDTKNAAGELPPKVAIPGCEDPATTKAPLPDDPRYYGVTIDKDGCQRKVLGSSQRQQRQVQNGRKPGRKGRGRRPVFVDLKLTVDCKRKCNGTYSQLPDGEPCLVCDGEPYGRHRTIKGGCYQGNCSSGQCHRGERKVNCYIPKNITNNVLNSVNLAE,binding result,CCL5_HUMAN [3],binds
same,binding result,CCL1_HUMAN [4],binds
same,binding result,CCL18_HUMAN [5],binds
same,binding result,CCL11_HUMAN [6],binds
same,binding result,CXCL12_HUMAN,binds
P1014_AMBCA (other) DIIGGIPGCGDPTTTSAPEVPPKHFAVRTDKDGCTLMIIGTWMTTEDHNRLPPDIGEKRAPYGRVQLPASCKKNCHGKVKNLPNGTPCREVFGDPRRGRKHIKNGCTVGKCQSGLCVTDKRIISCYIPPNITDPIPTHGPWAE,binding result,CCL4_HUMAN,binds
P1005_AMBMA (other) EKDTPKNIPGCGDTGTTAAPPADNPKHFAVYTDKHGCTIKVIGTWMTKEDHSRLPVSLRRVRASSGRVMLPASCQKICNDTVKNFPEGTPCRLVTGDPIKGKNHIKDGCIRGYCSSGVCVSDKRNISCYVPPN,binding result,CCL5_HUMAN [1],binds
same,binding result,CCL19_HUMAN,binds
same,binding result,CCL1_HUMAN [7],binds
same,binding result,CCL17_HUMAN,binds
same,binding result,CCL3_HUMAN [8],binds
same,binding result,CCL11_HUMAN [9],binds
P698_RHISA (other) NEDDSSDYYDASPMNCSSMSVNSTMGWLSMNCTMSCNGTTFPLSNSTHCFHSYTNLTVQSRMETMTYNCSVGTCSNGTCVENGTTTTCW,binding result,CCL5_HUMAN [1],binds
same,binding result,CCL8_HUMAN [10],binds
P1011_AMBTR (other) EKDTPKNIPGCEDAGTTAAPPADNPKHYAVYTDKNGCTFKVIGTWMTKEDHRRLPVSLRRVRASSGRVKLPASCQKICKHSVKKFPEGTPCRLVTRDPIKGKNHIKNGCIRGYCSSGVCVSDNRSISCYVLPNNTELTSPSGSFAE,binding result,CCL5_HUMAN [1],binds
same,binding result,CCL17_HUMAN,binds
same,binding result,CCL25_HUMAN,binds
same,binding result,CCL18_HUMAN [11],binds
same,binding result,CCL11_HUMAN [9],binds
P943_IXORI (other) RSKQPTASQSSKNSIKAEFCDTNCTQGTNGAWSGCSEGCFCVHVGNNTKGRCMKLSSDYDYTTQ,Kd,CXCL3_HUMAN,270 nM
same,Kd,CXCL1_HUMAN,540 nM
P672_RHIPU (other) VCEVSEQEGVGEDNATEDEDYEDFFKPVTCYFANSTVGPLRPPNCTVVCTNNTAWWNDTKSDGGHCYSEYRPEKRTHSREIYNCTIGVCGNGTCIANHTYADCW,"IC50, CCL8 induced THP-1 cell migration",CCL8_HUMAN [12],3 nM
same,IC50,CCL8-647,21 nM
same,"IC50, THP1 cell migration",CCL3_HUMAN [13],5.74 nM
same,"IC50, THP1 cell migration",CCL8_HUMAN [14],2.37 nM
same,IC50,CCL2-647,21 nM

# Reference: patent US20240034757A1 (OXFORD UNIVERSITY INNOVATION, published 2024)
